Laboratory results as given in the supplement of paper PMC6757056.
± gives the standard deviation of the averaged measurements.

B1: library; a variant is named by its letters at N, in order (parent)
chain: GCUGUCACCGGUGUAUUACCCUAGUGGUCGACCGGUCUGAUGAGUCUNNNNNNAGACGAAACAGC

Key:
[1] = variants of: B1; test: FACS-Seq fitted mean relative fluorescence mCherry/BFP without ligand (log10 relative fluorescence); ligand: hypoxanthine (xanthine aptamer); higher = higher reporter protein expression; details: HEK293T, ligand present: no
Method in brief: (§1)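 Fluorescence is reported as a normalized fitted mean of sorted-bin read counts. Lentivirally transduced HEK293T libraries (mCherry ribozyme-switch reporter, EF1α-BFP marker) were enriched, treated with or without ligand for 48 h, and sorted into 6 mCherry/BFP bins for MiSeq sequencing of PCR-amplified genomic DNA. The normal fit was on log10(mCherry/BFP), scaled to five spiked-in control ribozymes.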

[2] = variants of: B1; test: normalized RNA/DNA level with ligand (relative to sTRSVctl = 100) (log10 (% of sTRSVctl)); ligand: hypoxanthine (xanthine aptamer); higher = less ribozyme self-cleavage, higher mRNA level; details: ligand concentration (+) RNA-Seq: 5 mM, HEK293T, reporter: mCherry (pCS4076), ligand present: yes
Method in brief: (§2)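 Total RNA, extracted with EDTA 72 h after HEK293T cells were transfected with 4 µg per 6-well well of reporter-linked ribozyme switch library plasmids, was reverse-transcribed, amplified, barcoded and sequenced. Ligand, if used, was added 1 h before transfection. RNA level was derived from RNA reads divided by DNA reads and normalized to a spiked-in non-cleaving sequence or to the top sequences. This was multiplied by 100 and log10-transformed, with the top set of 25 sequences and a ≥100 DNA read minimum.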

[3] = variants of: B1; test: normalized RNA/DNA level without ligand (relative to sTRSVctl = 100) (log10 (% of sTRSVctl)); ligand: hypoxanthine (xanthine aptamer); higher = less ribozyme self-cleavage, higher mRNA level; details: HEK293T, reporter: mCherry (pCS4076), ligand present: no
Method in brief: as §2

[4] = variants of: B1; test: FACS-Seq fitted mean relative fluorescence mCherry/BFP with ligand (log10 relative fluorescence); ligand: hypoxanthine (xanthine aptamer); ligand concentration (+) FACS-Seq: 5 mM; higher = higher reporter protein expression; details: HEK293T, ligand present: yes
Method in brief: as §1

Row | Variant | FACS-Seq fitted mean (log10) [1] | normalized RNA/DNA level with ligand (log10) [2] | normalized RNA/DNA level without ligand (log10) [3] | FACS-Seq fitted mean (log10) [4]
1 | GCUGUCACCGGUGUAUUACCCUAGUGGUCGACCGGUCUGAUGAGUCUUAUCGCAGACGAAACAGC | 0.437 ± 0.11 | 1.947 ± 0.015 | 1.86 ± 0.047 | 0.239 ± 0.064
2 | GCUGUCACCGGUGUAUUACCCUAGUGGUCGACCGGUCUGAUGAGUCUUAUCGGAGACGAAACAGC | 0.2578 ± 0.0003 | 1.86 ± 0.024 | 1.47 ± 0.027 | 0.5888 ± 0.0049
3 | GCUGUCACCGGUGUAUUACCCUAGUGGUCGACCGGUCUGAUGAGUCUGAUCGGAGACGAAACAGC | 0.125 ± 0.0082 | 1.911 ± 0.012 | 1.59 ± 0.07 | 0.418 ± 0.018
4 | GCUGUCACCGGUGUAUUACCCUAGUGGUCGACCGGUCUGAUGAGUCUAAUGAUAGACGAAACAGC | 0.38227 ± 0.00021 | 1.88 ± 0.041 | 1.683 ± 0.0061 | 0.571 ± 0.06
5 | GCUGUCACCGGUGUAUUACCCUAGUGGUCGACCGGUCUGAUGAGUCUAAUGACAGACGAAACAGC | 0.585 ± 0.07 | 1.894 ± 0.0079 | 1.83 ± 0.049 | 0.5447 ± 0.0044
6 | GCUGUCACCGGUGUAUUACCCUAGUGGUCGACCGGUCUGAUGAGUCUAAUGAGAGACGAAACAGC | 0.0392 ± 0.012 | 1.81 ± 0.039 | 1.3 ± 0.022 | 0.472 ± 0.044
7 | GCUGUCACCGGUGUAUUACCCUAGUGGUCGACCGGUCUGAUGAGUCUAAUCGGAGACGAAACAGC | 0.134 ± 0.047 | 1.837 ± 0.013 | 1.373 ± 0.006 | 0.58 ± 0.038
8 | GCUGUCACCGGUGUAUUACCCUAGUGGUCGACCGGUCUGAUGAGUCUCAUCGAAGACGAAACAGC | 0.435 ± 0.017 | 1.97 ± 0.052 | 1.84 ± 0.029 | 0.6297 ± 0.0034
9 | GCUGUCACCGGUGUAUUACCCUAGUGGUCGACCGGUCUGAUGAGUCUAAUCUGAGACGAAACAGC | 0.297 ± 0.034 | 1.85 ± 0.022 | 1.43 ± 0.1 | 0.656 ± 0.024
10 | GCUGUCACCGGUGUAUUACCCUAGUGGUCGACCGGUCUGAUGAGUCUAAUCUAAGACGAAACAGC | 0.651 ± 0.051 | 1.922 ± 0.014 | 1.8 ± 0.059 | 0.6869 ± 0.0045
11 | GCUGUCACCGGUGUAUUACCCUAGUGGUCGACCGGUCUGAUGAGUCUUAUGACAGACGAAACAGC | 0.282 ± 0.084 | 1.95 ± 0.047 | 1.807 ± 0.01 | 0.457 ± 0.11
12 | GCUGUCACCGGUGUAUUACCCUAGUGGUCGACCGGUCUGAUGAGUCUUAUCCGAGACGAAACAGC | 0.207 ± 0.053 | 1.927 ± 0.019 | 1.71 ± 0.035 | 0.451 ± 0.096
13 | GCUGUCACCGGUGUAUUACCCUAGUGGUCGACCGGUCUGAUGAGUCUCAUGACAGACGAAACAGC | -0.299 ± 0.099 | 1.937 ± 0.006 | 1.793 ± 0.017 | 0.254 ± 0.046
14 | GCUGUCACCGGUGUAUUACCCUAGUGGUCGACCGGUCUGAUGAGUCUCAUGAAAGACGAAACAGC | 0.0197 ± 0.067 | 1.87 ± 0.026 | 1.68 ± 0.022 | 0.341 ± 0.056
15 | GCUGUCACCGGUGUAUUACCCUAGUGGUCGACCGGUCUGAUGAGUCUCAUGAUAGACGAAACAGC | 0.296 ± 0.088 | 1.905 ± 0.0035 | 1.73 ± 0.032 | 0.333 ± 0.077
16 | GCUGUCACCGGUGUAUUACCCUAGUGGUCGACCGGUCUGAUGAGUCUCAUGAGAGACGAAACAGC | -0.0522 ± 0.019 | 1.924 ± 0.011 | 1.562 ± 0.0089 | 0.35 ± 0.039
17 | GCUGUCACCGGUGUAUUACCCUAGUGGUCGACCGGUCUGAUGAGUCUGAUGAGAGACGAAACAGC | 0.0708 ± 0.0074 | 1.74 ± 0.028 | 1.3 ± 0.067 | 0.572 ± 0.047
18 | GCUGUCACCGGUGUAUUACCCUAGUGGUCGACCGGUCUGAUGAGUCUGAUGAAAGACGAAACAGC | 0.529 ± 0.025 | 1.886 ± 0.0083 | 1.711 ± 0.013 | 0.52 ± 0.051
19 | GCUGUCACCGGUGUAUUACCCUAGUGGUCGACCGGUCUGAUGAGUCUGAUGAUAGACGAAACAGC | 0.537 ± 0.094 | 1.91 ± 0.05 | 1.767 ± 0.015 | 0.495 ± 0.025
20 | GCUGUCACCGGUGUAUUACCCUAGUGGUCGACCGGUCUGAUGAGUCUGAUGACAGACGAAACAGC | 0.654 ± 0.023 | 1.92 ± 0.02 | 1.72 ± 0.023 | 0.526 ± 0.07
21 | GCUGUCACCGGUGUAUUACCCUAGUGGUCGACCGGUCUGAUGAGUCUAAUCCUAGACGAAACAGC | 0.417 ± 0.063 | 1.94 ± 0.04 | 1.887 ± 0.008 | 0.433 ± 0.13
